T1: SSB-2ΔSB (recombinant murine SSB-2 SPRY domain, residues 12-224) (mouse, UniProt O88838 12-224)
T1 construct: 226 residues in total; expressed as GST fusion in E. coli, GST cleaved off with thrombin; 15N-labelled for NMR; coupled to NHS-Sepharose for pull-downs; also called SPSB2
T1 sequence: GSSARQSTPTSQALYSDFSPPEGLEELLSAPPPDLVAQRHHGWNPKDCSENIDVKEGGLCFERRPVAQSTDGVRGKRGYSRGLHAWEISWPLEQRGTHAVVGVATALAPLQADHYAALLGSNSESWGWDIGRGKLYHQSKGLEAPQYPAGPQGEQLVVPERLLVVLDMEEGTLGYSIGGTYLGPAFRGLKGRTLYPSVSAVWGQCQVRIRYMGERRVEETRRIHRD

T2: full-length iNOS protein (endogenous, from LPS/IFNγ-treated mouse bone marrow-derived macrophages) (mouse, UniProt P29477 1-1144)
T2 construct: Not purified: present in macrophage lysates; Detected by Western blot with anti-iNOS antibody; also called NOS2; inducible nitric oxide synthase
T2 sequence: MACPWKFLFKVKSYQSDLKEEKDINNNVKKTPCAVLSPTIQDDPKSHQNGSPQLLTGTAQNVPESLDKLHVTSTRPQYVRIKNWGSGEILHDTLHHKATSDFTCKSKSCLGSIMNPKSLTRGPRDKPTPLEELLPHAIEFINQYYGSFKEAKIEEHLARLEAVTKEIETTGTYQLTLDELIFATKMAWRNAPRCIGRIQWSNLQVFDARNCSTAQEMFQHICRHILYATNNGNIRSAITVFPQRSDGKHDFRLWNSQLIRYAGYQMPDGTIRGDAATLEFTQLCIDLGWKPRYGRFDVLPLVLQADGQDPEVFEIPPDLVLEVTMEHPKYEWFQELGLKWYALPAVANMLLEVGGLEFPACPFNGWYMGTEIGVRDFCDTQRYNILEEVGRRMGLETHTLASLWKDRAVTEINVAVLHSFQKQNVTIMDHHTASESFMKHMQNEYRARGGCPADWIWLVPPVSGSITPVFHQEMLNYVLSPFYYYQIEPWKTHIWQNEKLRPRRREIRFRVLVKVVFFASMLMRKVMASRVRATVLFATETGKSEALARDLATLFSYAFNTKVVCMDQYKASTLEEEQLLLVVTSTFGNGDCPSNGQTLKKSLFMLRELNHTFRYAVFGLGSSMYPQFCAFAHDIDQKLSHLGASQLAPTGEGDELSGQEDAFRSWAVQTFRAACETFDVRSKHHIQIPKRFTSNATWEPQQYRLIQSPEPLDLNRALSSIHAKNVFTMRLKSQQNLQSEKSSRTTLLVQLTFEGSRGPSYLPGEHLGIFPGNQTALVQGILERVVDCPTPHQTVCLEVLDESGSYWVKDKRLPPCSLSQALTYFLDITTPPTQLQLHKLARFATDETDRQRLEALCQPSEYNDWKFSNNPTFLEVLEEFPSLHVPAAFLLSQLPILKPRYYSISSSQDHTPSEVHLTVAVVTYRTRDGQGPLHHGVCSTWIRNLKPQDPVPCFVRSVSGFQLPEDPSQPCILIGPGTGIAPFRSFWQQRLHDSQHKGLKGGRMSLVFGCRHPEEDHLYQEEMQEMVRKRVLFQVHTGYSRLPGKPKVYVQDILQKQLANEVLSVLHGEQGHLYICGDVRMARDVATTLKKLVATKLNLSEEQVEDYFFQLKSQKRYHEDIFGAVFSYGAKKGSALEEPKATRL

B1: iNOS N-terminal peptide II, Ac-KEAKDINNNVKKT-NH2 (peptide)
peptide: Ac-KEAKDINNNVKKT-NH2
B2: iNOS N-terminal peptide III, Ac-KEEADINNNVKKT-NH2 (peptide)
peptide: Ac-KEEADINNNVKKT-NH2
B3: iNOS N-terminal peptide VI, Ac-KEEKDANNNVKKT-NH2 (peptide)
peptide: Ac-KEEKDANNNVKKT-NH2
B4: iNOS N-terminal peptide VIII, Ac-KEEKDIQNNVKKT-NH2 (peptide)
peptide: Ac-KEEKDIQNNVKKT-NH2
B5: iNOS N-terminal peptide XIV, Ac-KEEKDINNNAKAT-NH2 (peptide)
peptide: Ac-KEEKDINNNAKAT-NH2
B6: iNOS N-terminal peptide VII, Ac-KEEKDIANNVKKT-NH2 (peptide)
peptide: Ac-KEEKDIANNVKKT-NH2
B7: iNOS N-terminal peptide IX, Ac-KEEKDINANVKKT-NH2 (peptide)
peptide: Ac-KEEKDINANVKKT-NH2
B8: iNOS N-terminal peptide IV, Ac-KEAADINNNVKKT-NH2 (peptide)
peptide: Ac-KEAADINNNVKKT-NH2
B9: iNOS N-terminal peptide V, Ac-KEEKAINNNVKKT-NH2 (peptide)
peptide: Ac-KEEKAINNNVKKT-NH2
B10: Flag-tagged SSB-2 mutant R100/G101 to alanine (other)
chain: DYKDDDDKMGQTALARGSSSTPTSQALYSDFSPPEGLEELLSAPPPDLVAQRHHGWNPKDCSENIDVKEGGLCFERRPVAQSTDGVRGKRGYSRGLHAWEISWPLEQAATHAVVGVATALAPLQADHYAALLGSNSESWGWDIGRGKLYHQSKGLEAPQYPAGPQGEQLVVPERLLVVLDMEEGTLGYSIGGTYLGPAFRGLKGRTLYPSVSAVWGQCQVRIRYMGERRVEEPQSLLHLSRLCVRHALGDTRLGQISTLPLPPAMKRYLLYK
B11: Flag-tagged SSB-2 mutant Y120 to alanine (other)
chain: DYKDDDDKMGQTALARGSSSTPTSQALYSDFSPPEGLEELLSAPPPDLVAQRHHGWNPKDCSENIDVKEGGLCFERRPVAQSTDGVRGKRGYSRGLHAWEISWPLEQRGTHAVVGVATALAPLQADHAAALLGSNSESWGWDIGRGKLYHQSKGLEAPQYPAGPQGEQLVVPERLLVVLDMEEGTLGYSIGGTYLGPAFRGLKGRTLYPSVSAVWGQCQVRIRYMGERRVEEPQSLLHLSRLCVRHALGDTRLGQISTLPLPPAMKRYLLYK
B12: Flag-tagged SSB-2 mutant V206 to alanine (other)
chain: DYKDDDDKMGQTALARGSSSTPTSQALYSDFSPPEGLEELLSAPPPDLVAQRHHGWNPKDCSENIDVKEGGLCFERRPVAQSTDGVRGKRGYSRGLHAWEISWPLEQRGTHAVVGVATALAPLQADHYAALLGSNSESWGWDIGRGKLYHQSKGLEAPQYPAGPQGEQLVVPERLLVVLDMEEGTLGYSIGGTYLGPAFRGLKGRTLYPSVSAAWGQCQVRIRYMGERRVEEPQSLLHLSRLCVRHALGDTRLGQISTLPLPPAMKRYLLYK
B13: Flag-tagged SSB-2 transgene product (a.a. 3-265), in BMDM of Ssb-2 T/+ mice (other)
chain: DYKDDDDKQTALARGSSSTPTSQALYSDFSPPEGLEELLSAPPPDLVAQRHHGWNPKDCSENIDVKEGGLCFERRPVAQSTDGVRGKRGYSRGLHAWEISWPLEQRGTHAVVGVATALAPLQADHYAALLGSNSESWGWDIGRGKLYHQSKGLEAPQYPAGPQGEQLVVPERLLVVLDMEEGTLGYSIGGTYLGPAFRGLKGRTLYPSVSAVWGQCQVRIRYMGERRVEEPQSLLHLSRLCVRHALGDTRLGQISTLPLPPAMKRYLLYK
notes: The printed end of the range may exceed the entry's length; also called full-length SSB-2
B14: Flag-tagged SSB-2ΔSB transgene product (a.a. 2-224, without the SOCS box), in BMDM of Ssb-2ΔSB T/+ mice (other)
chain: DYKDDDDKGQTALARGSSSTPTSQALYSDFSPPEGLEELLSAPPPDLVAQRHHGWNPKDCSENIDVKEGGLCFERRPVAQSTDGVRGKRGYSRGLHAWEISWPLEQRGTHAVVGVATALAPLQADHYAALLGSNSESWGWDIGRGKLYHQSKGLEAPQYPAGPQGEQLVVPERLLVVLDMEEGTLGYSIGGTYLGPAFRGLKGRTLYPSVSAVWGQCQVRIRYMGERRVEE
notes: also called SOCS box-deleted SSB-2
B15: Flag-tagged SSB-1ΔSB transgene product (a.a. 2-233, without the SOCS box), in BMDM of Ssb-1ΔSB T/+ mice (other)
chain: DYKDDDDKGQKVTGGIKTVDMRDPTYRPLKQELQGLDYCKPTRLDLLLDMPPVSYDVQLLHSWNNNDRSLNVFVKEDDKLIFHRHPVAQSTDAIRGKVGYTRGLHVWQITWAMRQRGTHAVVGVATADAPLHSVGYTTLVGNNHESWGWDLGRNRLYHDGKNQPSKTYPAFLEPDETFIVPDSFLVALDMDDGTLSFIVDGQYMGVAFRGLKGKKLYPVVSAVWGHCEIRMRYLNGLDPE
notes: also called SOCS box-deleted SSB-1
B16: Flag-tagged SSB-1 transgene product (a.a. 2-274), in BMDM of Ssb-1 T/+ mice (other)
chain: DYKDDDDKGQKVTGGIKTVDMRDPTYRPLKQELQGLDYCKPTRLDLLLDMPPVSYDVQLLHSWNNNDRSLNVFVKEDDKLIFHRHPVAQSTDAIRGKVGYTRGLHVWQITWAMRQRGTHAVVGVATADAPLHSVGYTTLVGNNHESWGWDLGRNRLYHDGKNQPSKTYPAFLEPDETFIVPDSFLVALDMDDGTLSFIVDGQYMGVAFRGLKGKKLYPVVSAVWGHCEIRMRYLNGLDPEPLPLMDLCRRSVRLALGKERLGAIPALPLPASLKAYLLYQ
notes: The printed end of the range may exceed the entry's length; also called full-length SSB-1

Each binder was assayed against T1, SSB-2ΔSB (recombinant murine SSB-2 SPRY …) (assay: ITC, 25 C, peptide injected into SSB-2ΔSB).
Procedure: FIG. 3. Typical ITC raw data and titration curves for SSB-2 and iNOS peptide interactions. Titration curves were fitted using the “One Set of Sites” model in MicroCal Origin.
Wild-type and mutant iNOS peptides (Table 2), corresponding to Lys19-Thr31 of mouse iNOS, were synthesized by GL Biochem (Shanghai) Ltd. These peptides were N-terminal acetylated and C-terminal amidated. All ITC measurements were carried out at 25° C. using a Microcal omega VP-ITC (Microcal Inc., Northampton, Mass.). SSB-2ΔSB was dialysed against buffer (100 mM TrisHCl, 150 mM NaCl, pH 8.0), and wild-type and mutant iNOS N-terminal peptides were prepared in the same buffer from 5 mM stocks. Solutions of 5 to 10 μM SSB-2ΔSB in the cell were titrated by injection of a total of 290 μL of 50-200 μM of iNOS peptides. Data analysis was performed using the evaluation software, MicroCal Origin version 5.0. All curves were fitted using the nonlinear least-squares fitter and the “One Set of Sites” model.
Binder B1 has a Kd of 14 nM. With B2 the Kd was 127 nM. For B3, the Kd was 23.5 nM. B4 gave a Kd of 40500 nM. With B5 the Kd was 180 nM. For B6, the Kd was 17200 nM. Binder B7 has a Kd of 826 nM. Work on B8 yielded a Kd of 65.4 nM. For B9, the Kd was 21600 nM.

What follows are binders tested against T2, full-length iNOS protein (endogenous, …) (assay: anti-Flag co-immunoprecipitation, anti-iNOS Western blot).
Excerpt: FIG. 6. Interaction between iNOS and SSB-1, -2, and -4 and SSB-2 residues affecting 10 iNOS binding. (A) iNOS interacts preferentially with SSB-2 and SSB-4. 293T cells were transiently transfected with vector alone or cDNA encoding either Flag-tagged SSB-1, SSB-2, SSB-3 or SSB-4. Cells were lysed, and mixed with BMDM lysates from cells induced to express iNOS. Flag-tagged proteins were immunoprecipitated using anti-Flag antibodies (M2-beads) and separated by SDSPAGE. Co-immunoprecipitation of iNOS was detected by Western blot with anti-iNOS antibodies (upper panel). Membranes were stripped and reprobed with rat anti-Flag antibodies (middle panel). Comparative expression of Flag-tagged proteins in 293T lysates is shown by Western blot (lower panel). (B) SSB-2 residues affecting iNOS binding. Residues in the SSB-2 SPRY domain were mutated to Ala or Phe (for Y120) based on SSB-2 structure and sequence conservation. 293T cells 20 were transiently transfected with cDNA encoding Flag-tagged wild-type or mutant SSB-2. Cells were lysed, and mixed with BMDM lysates from cells induced to express iNOS. Flag-tagged proteins were immunoprecipitated using anti-Flag antibodies and separated by SDS-PAGE. Coimmunoprecipitation of iNOS was detected by Western blot with anti-iNOS antibodies.
B10: no binding. B11: no binding. B12: no binding.

The binders below were run against T2, full-length iNOS protein (endogenous, …) (assay: anti-Flag immunoprecipitation from transgenic BMDM, anti-iNOS re-blot).
Procedure: Cells were incubated with IFNγ and LPS as described, and lysed in KALB lysis buffer (Nicholson et al., 1995) containing protease inhibitors (Complete Cocktail tablets, Roche), 1 mM phenylmethylsulphonyl fluoride, 1 mM Na₃VO₄ and 1 mM NaF. Proteins were immunoprecipitated using anti-Flag antibody conjugated to Sepharose (M2; EASTMAN KODAK). Proteins were separated by sodium dodecyl sulphatepolyacrylamide gel electrophoresis (SDS-PAGE) under reducing conditions and electrophoretically transferred to Biotrace PVDF membranes (Pall Corp. Ann Arbor, Mich.). Membranes were blocked overnight in 10% w/v skim milk and incubated with primary antibody for 2 h. Antibody binding was visualized with either peroxidase-conjugated goat anti-rat immunoglobulin (Southern Biotech) or peroxidase-conjugated sheep anti-rabbit immunoglobulin (Chemicon, Melbourne, Australia), and the enhanced chemiluminescence (ECL) system (Amersham, Little Chalfont, Buckinghamshire, UK). To re-blot, the membrane was first stripped of antibodies in 0.1 M glycine, pH 2.9.
As genetic deletion of SSB-2 appeared to result in elevation of iNOS levels, it was tested whether artificially increasing SSB levels could correspondingly down-regulate iNOS expression. BMDM were generated from mice expressing either a Flag-tagged Ssb-1 or Ssb-2 transgene under a constitutive promoter (Ssb-1^{T/+}, Ssb-2^{T/+}) and from wild-type littermate control mice. […] Macrophage expression of the SSB transgenes was confirmed by anti-FLAG immunoprecipitation and Western blot (FIGS. 9C and 10C, top panels).
B13: binds. B14: binds. B15: binds. B16: binds.

— patent US20120308570A1, “METHODS FOR TREATING DISEASES” (priority 2009, published 2012)
